Measurements reported in article PMC3364216.

Target: RecU protein from Mycoplasma genitalium (RecUMge) (Mycoplasma genitalium) (UniProt Q49422)

HJ resolution activity of RecUMge (0.2 uM) on HJ 1.1 preincubated with RecUMge before RuvAMge (0 to 4 uM) was added; percent inhibition (≥20% only at ≥250 nM): > 80%
HJ resolution activity of RecUMge (0.2 uM) on HJ 1.1 preincubated with RuvAMge (0 to 4 uM) before RecUMge was added; percent reduction of activity (about 20% at 60 nM, highest at 1 uM or more): > 80%
Substance: RuvA homologue from Mycoplasma genitalium (RuvAMge), H10-tagged (from UniProt Q49424 1-205) (natural protein)
